# Laboratory results reported in the nanobody polyreactivity screen of Harvey et al. (2022).
# Assay: yeast display, Sf9 membrane polyspecificity reagent, FACS + sequencing; frameworks hold sequencing errors
# Method in brief: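 A synthetic nanobody library was expressed on Saccharomyces cerevisiae BJ5465 by galactose induction for 36–48 hours. The library was stained for 1 hour at 4 °C with 10% biotinylated, detergent-solubilized Sf9 membrane reagent and enriched with streptavidin microbeads before FACS. Low and high (top ~1%) gates were set on anti-HA fluorescence for expression and streptavidin fluorescence for reagent binding, and each polyreactivity label reflects the gate of origin.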
row,Sequence,polyreactivity (PSR sort gate)
1,QVQLVESGGGLVQAGGSLRLSCSASGFIFYKNAMGWYRQAPGKERELVAAISGGGGSTYYADSVKGRFTISRDNAKNTVYLQMNSLKPDDTAVYYCATYSFRRTGWRYDYWGQGSQVTVSS,high polyreactivity
2,QVQLVESGGGLVQAGGSLRLSCAASGRIFKYNAMGWYRQAPGKERELVAAISGGGSTNYADSVKGRFTISRDNAKNTVYLQMNSLKPEDTAVYYCAKGYRRVYGPFYYWGQGTQVTVSS,low polyreactivity
3,QVQLVESGGGLVQAGGSLRLSCAASGSTFDYNTMGWYRQAPGKERELVAAISWRGVSTYYADSVKGRFTISRDNAKNTVYLQMNSLKTEDTAVYYCNAVHHYPEHIGGGYWGQGTQVTVSS,low polyreactivity
4,QVQLEESGGGLVQAGGSLRLIWAASGFIFRTYTMGWYRQAPGKERELVATIDSSGGSTYYADSVKGRFTISRDNAKNTVYLQMNSLKPEDTAVYYCNADLRELSPWYWYSGEMDYWGQGTQVTVSS,low polyreactivity
5,QVQLVESGGGLVQAGGSLRLSCAASGSTSVKYAMGWYRQAPGKERELVAAIRKRGDSTYYADSVKGRFTISRDNAKNTVYLQMNSLKPEDTAVYYCAAQYLRGRGYWGQGTQVTVSA,low polyreactivity
6,QVQLVESGRGLVQAGGSLRLSCAASGRTFDFNAMGWYRQAPGKERELVAAISSDSDTYYADSVKGRFTISRDNAKNTVFLQMNSLKPEDTAVYYCAAEHQYPYGWYYYWGQGTQVTVSS,high polyreactivity
7,QVQHVESGGGLVQAGGSLRLRCAASGRTFGQNTMGWSRQAPGKERELVAAISWSGDSTYYADSVKGRFTISRDNAKNTVYLQMNSLKTEDSAVYYCAADPYNYYVSGYDYWGQGTQVTVSS,low polyreactivity
8,QVQHVESGGGLVQAGGSLRLSCAASGLTFSYNAMGWYRQAPAKERELVAAIRSGGSTNYADSVKGRFTISRDNAKNTVYLEMYSLKPVDSAVYFCADKSVTGVFRYYYWGQGSQVTVSS,low polyreactivity
9,QVQLQESGGLVQAGGLRLSCEASGSVSYQEGMGWYRQATGKERELVATISFGANTNYADSVKGRFTISRDNAKNTVYLQMNSLKTEDTAVFYCAADSLFDDYYGYWGQGTQVTVSS,low polyreactivity
10,QVQLQESGGGLVQAGGGLRLSCAASGTISGPHVMGWYRQAPGKEREFVAAINVGANTYYADNVKGRFTISRDNAKNTVYLQMNSLKPEDTAVYYRAAVYYGDIGHEYWGQGTQVTVSC,low polyreactivity
11,QVQLVESGGGLVQAGGSLRLSCAASGRIFVRNAMGWYRQAPGKERELVAAITSGAGSTNYADSVKGRFTISRDNAKNTVYLQMNSLKPEDTAVYYCAADYETGAVSILDDYWGQGTQVTVSS,low polyreactivity
12,QVQLVESGGGLVQEGGILRLICAASGIIFPIYAMGWYRQAPGKERELVAAISQSGASTYYADSVKGRFTISRDNAKNTVYLALNSLKPEDTAVYYCAALNGDGPWQLSSEEFVYWGQGTQVTVSS,low polyreactivity
13,QVQLVESGGGLVQAGGSLRLSCAASGRIFYGNTMGWYRQAPGQERELVATITRSGGSTYYADSVKGRFTISRDNAKNTVYLQMNNLKPEDTAVYYCAVGYWRLFPYGYWGQGTQVTVSS,high polyreactivity
14,QVQLVESGGGLVQAGGSLRLSSAASGRTFSRYVMGWSRQAPGKERELVATISRSGGSTFYADSVKGRFTISRDNAKNTVYLQMNSLKPEDTAVYYCNKKVQGYQVTYGYWGQGTQVTVSS,high polyreactivity
15,QVQLVESGGGLVQAGGSLRLTCAASASIFGHNTMGWNREAPGKERELVAAISVSGTRTYYADSVKGRFTISRVNAKNTVYLQMNSLKPEDTAVYYCAAEISRVRQGVAWSYKYEYWGQGTQVTVSS,high polyreactivity
16,QDQLVESGGGLVQAGGSLRLICAASGRTFWAYAMGWYRQAPGKERELVAAISVSGGRTYYADSVKGRFTISRDNAKNTVYLQMNSLKPEDTAVYYCNKRYLKSYEYYWGQGTHVTVSS,high polyreactivity
17,QVQLVESGGGLVQGGGSLRLSCAASGITFGDYAMGWYRQAPGKERELVAGINWSGDGTYYADSVKGRFTISRDNAQNTDYLQLNSLKPEDTAVYNCAAETFYDYGGYDYWGQGTQVTVSS,low polyreactivity
18,QVQLVESGGGLVQAGGSLRLSCAASGLTFRYYAMGWYRQAPGKERELVATITRAGRTNYADSVKGRFTISRDNAKNTVYLQMNSLKPEDTAVYYCATKRVLTGYDSWGQGTQVTVSS,high polyreactivity
19,QVHLVESGGGLVQAGRSLRFSCAASGSIFGVNTMGWYRQAPGKERELDAGISSSGSSTYYADSVKGRFTISRDNAKNTVYLQMNSLKPEDTAVYDCAVRPRYYSTNMDSWGQGTQVTVSS,low polyreactivity
20,QVQLVESGGGLVQAGCSLRLSCAASGFIFDDYDMGWYRQAPGKERELVAAISWSGGSTYYADSVKGRFTISRDNAKNTVYLQMNSLKPEDTAVFYCNADYYRSRYDYWGQGTQVTVSS,high polyreactivity
21,QVQLVESGGGLVQAGGRLRLSCAASGITFFWNAMGWYRQAPGKERELVAAISSGAGTTYADSVKGRFTISRDNAKNTVYLQMNSLKPEDTAVYYCAKRVDAYGWWGRSSGVLSDYWGQGTQVTVSS,low polyreactivity
22,QVQLVESGGGLVQAGGSLRLSCAASGSIFNPNAMGWYRQAPGKERELLAAIDSGGTTDYADSVKGRFTISRDNAKNTVYLQMNSLKPEVTAVYYCNADRTVTSSSFTDYDYWGQGTQVTVSS,high polyreactivity

row,Sequence,polyreactivity (PSR sort gate)
1,QVQLVESGGGLVHAGGSLRLSCAASGNTYLYYGLGWYRQAPVKEREMVAAITQSGGTTYYADSVKGRFTISRDNAKNTVYLQMNSLTPEDTAVYYCAATRYYYYWYVYDDRGDYWGQGTQVTVSS,low polyreactivity
2,QVQLVESGGGLVQAGGSLRLSCAASGSIFSNYAMGWYRQAPGKERELVAAISRSGGSTRYADSVKGRFTISRDNAKNTVYLQMNSLKPEDTAVYYCNAVRYPRLMYYWGQGTQVTVSS,high polyreactivity
3,QVQLVESGGGLVQAGGSLRLSCAASGSNFYFYAMGWYIQAPGKERELVADITWSGGSTYYADSVKGRFTISRDNAKNTVYLQMNSLKREDTAVYYCATDSWFGLEYWGQGTQVTVSS,high polyreactivity
4,QVQLVESGGGLVQAGGSLRLSCAASGSIFVGYDMGWYRQAPGKERELVAAISWRGVGTYYADSVKGRCTISRDNAKNTVYLQMNSLKPEDTAVYYCAARWTVPRDSAPSKGYDYWGQGTQVTVSS,low polyreactivity
5,QVQLVESGGGLVQAGGSLRLSCAASGSTFDGNAMGWYRQAPGKERELVATITRRGGSTNYADSVKGRFTISRDNAKNTVYLQMNSLKPEDTAVYYCATADAHSSAAGEDYWGQGTQVTVSS,low polyreactivity
6,QVQLVESGGGLDQAGGSLRLSCAASALIFSSYAMGWYRQAPGKERELVAAITGSGGRTYYADSVKGRFTISRDNAKNTVYLQMNSLKPEDTAVYYCAAKYPAPRYYTGYDYWGQGTQVTVSS,high polyreactivity
7,QVQLVESGGGLVQAGGSLRLSCAASGSIFYTYTMGWYRQAPGKERELVAAISWSGGSTYYADSVKGRFTISRDNAKNTVYLQMISLKPEDTAVYYCAAYGTGYYGYDYWGQGTQVTVSS,low polyreactivity
8,QVQLVESGGGLVQAGGSLRLSCAASGYTFSDYAMGWYRQAPGKERELVAAISWSGGSTYYADSVKGRFTISRDNAKNTVYLQMNSLKPEDTAVYYCAAKWYAPDLLYYYWGQGTQVTVSS,low polyreactivity
9,QVQLVESGGGLVQAGGSLRLSCAASGSIFRRYAMGWYRQAPGKERELVAAISSNGGSTYYADSVKGRFTISRDNAKNTVYLQMNSLKPEDTAVYYCNAPPLYRDEYWGQGTQVTVSS,high polyreactivity
10,QVQLVESGGGLVQAGGSLRLSCAASGSTFRRYAMGWYRQAPGKERELVAAITRRGGSTYYADSVKGRFTISRDNAKNTVYLQMNSLKPEDTAVYYCNAVPVVRAGHGYDSWGQGTQVTVSS,high polyreactivity
11,QVQLVESVGGLVQAGGSHRLSCAASGSTFYRYAMGWYRQAPGKERELVAAISRSGGTTYYADSVKGRFTISRDNAKNTVYLQMNSLKPDDTAVYYCNARGRYEYGYWGQGTEVTVSS,high polyreactivity
12,QVQLVESGGGLVQAGGSLRLSCAASGYTFDWYAMGWYRQAPGKERELVAAISYSTGSTYYADSVKGRFTISRDNAKNTVYLQMHSLKPEDTAVYYCATRYWRSGYDWPYGSWGQGTQVTVSS,high polyreactivity
13,QVQLVESGGGLVQAGGSLRLSCAASGRIFAYYAMGWYRQAPGKERELVAAISGGGGSTYYADSVKGRFTISRDNAKNTVYLQMNSLKPEDTAVYFCAAKSSRYDYYYWGHGTQVTVSS,high polyreactivity
14,QVQLVESGGGLVQAGGSLRLSCSASGSIFSANVMGWYRQAPGKDRELVAAIRRGGTTYYADSVKGRFTISRDNAKNTVYLQMNSLKPEDNAVYYCATDGIFGSYLRFEVAYDYWGQGTQVTVSS,low polyreactivity
15,QVQHVESGGGLVQAGGSLRLSCAASGSTFGRYAMGWYRQAPGKERELVARISWGGGSTYYADSVKGRFTISRDNAKNTVYLQMNSLKPEDSAVYYCATRVYRSAVSYDYWGQGTQVTVSS,high polyreactivity
16,QVQLVESGGGLVQAGGSLRLRCAASGRTFYPYAMGWYRQAPGKERELVAAINWSGTSTYYADSVKGRFTISRDNAKNTVYLQMNSLKPEDTAVYYCAAKQYPVLHYSLTEADMDYWGQGTQVTVSS,low polyreactivity
17,QVQLVESGGGLVQAGGSLRLSCAASGSIFDTYAMGWYRQAPGKERELVAAITWGGGRTYYADSVKGRFTISRDNAKNTVYLQMNSLKPEDTAVYYCAARWRLRGGNQRYGYWGQGTQVTVSS,high polyreactivity
18,QVQLQESGGSLVQAGGSLRLSCSASGNILVLPHGLVSPGAERELVATITGGSITYYADSEKGRFTISRDNAKNTVYLQMNSLKPGDTAVYYCAVINIYHRPHPYWGQGTLVTVSS,high polyreactivity
19,QLQLQESGGGLVQAGGSLRLTCAASGYIFPTAIMRWYRQAPGTERKLVAASNPGSNTYYADSVKGRFTFSLDNAKNTVYLQMNSLTPEDAAVYSCAVSIWLDGTLDFWGQGTQVTVSS,low polyreactivity
20,QVQLVESGGGLVQAGGSLRLSCAASGRTFYNAMGWYRQAPGKERELVAAITTGGGTKYADSVKGRFTISRDNAKNTVYLQMNSLKPEDTAVYYCNTDEWYHFYHGAHKYDYWGQGTQVTVSS,low polyreactivity
21,QVQLVESGGGLVQAGGILRLTCAASGSIFGTYAMGWYRTPPGKERELVSAITRRSGRTYYADSVKGRFTISRDNAKNTVNLQMNCLKQEDTAVYYCAKRPVIDDDYWGQGTQETVSS,high polyreactivity
